These results are taken from article PMC7736812.

The target of this assay is 70S ribosomes from E. coli MRE600 (vacant) (E. coli). The assay can be described thus: stopped-flow Rayleigh light scattering (325 nm) of 70S dissociation; 70S ribosomes (0.05 uM) rapidly mixed with increasing GTPBP6 with 0.5 mM GTP, phosphoenol pyruvate and pyruvate kinase; 50 mM Tris-HCl pH 7.5, 70 mM NH4Cl, 30 mM KCl, 7 mM MgCl2, 37°C; kapp against GTPBP6 concentration, linear fit: slope = association, intercept = dissociation rate constant, Kd from their ratio.

B1: GTPBP6Δ43 (purified recombinant GTPBP6) (domain or fragment)
chain: PGNLEGPWGGGRGLRADGGRSRTGDDEEEPEDADENAEEELLRGEPLLPAGTQRVCLVHPDVKWGPGKSQMTRAEWQVAEATALVHTLDGWSVVQTMVVSTKTPDRKLIFGKGNFEHLTEKIRGSPDITCVFLNVERMAAPTKKELEAAWGVEVFDRFTVVLHIFRCNARTKEARLQVALAEMPLHRSNLKRDVAHLYRGVGSRYIMGSGESFMQLQQRLLREKEAKIRKALDRLRKKRHLLRRQRTRREFPVISVVGYTNCGKTTLIKALTGDAAIQPRDQLFATLDVTAHAGTLPSRMTVLYVDTIGFLSQLPHGLIESFSATLEDVAHSDLILHVRDVSHPEAELQKCSVLSTLRGLQLPAPLLDSMVEVHNKVDLVPGYSPTEPNVVPVSALRGHGLQELKAELDAAVLKATGRQILTLRVRLAGAQLSWLYKEATVQEVDVIPEDGAADVRVIISNSAYGKFRKLFPG
Broadly, the Kd is the concentration at which binding is half-saturated. In general, koff refers to the rate constant with which the complex falls apart. By kon is commonly meant the second-order rate constant of association. For the molecule B1, the equilibrium dissociation constant (Kd) came to 0.7 µM, the koff is 0.09 s⁻¹ and the kon was found to be 130000 M⁻¹ s⁻¹.
